Data published in paper PMC2894972, “Protein-Protein Interaction Antagonists as Novel Inhibitors of Non-Canonical Polyubiquitylation” (PLoS ONE, 2010).

Biological target: T1, Ubc13 (human, UniProt P61088 1-152)
T1 construct: Ubc13, ubiquitin-conjugating enzyme (E2), human; also called purified Ubc13; source: recombinant, purified
T1 sequence (looked up): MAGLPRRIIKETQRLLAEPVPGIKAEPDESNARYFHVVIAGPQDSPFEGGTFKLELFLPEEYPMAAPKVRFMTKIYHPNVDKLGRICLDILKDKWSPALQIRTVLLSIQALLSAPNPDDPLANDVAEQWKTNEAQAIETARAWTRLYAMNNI
Test: SPR; Uev1 immobilised on a Biacore CM5 chip (1179,1 RU); Ubc13 in the mobile phase; 10 mM HEPES, 0.15 M NaCl, pH 7.4; Biacore T100
Settings: both partners purified

B1: Uev1 (natural protein)
chain: not shown
notes: Uev1, ubiquitin-conjugating enzyme variant 1, human; also called recombinant Uev1; source: recombinant, purified
Kd: 1 nM
